Measurements as given in the supplement of paper PMC12783771.
± gives the standard deviation of the averaged measurements.

B1: library; numbered along this chain (parent)
chain: MNIQIGELAKRTACPVVTIRFYEQEGLLPPPGRSRGNFRLYGEEHVERLQFIRHCRSLDMPLSDVRTLLSYRKRPDQDCGEVNMLLDEHIRQVESRIGALLELKHHLVELREACSGARPAQSCGILQGLSDCVCDTRGTTAHPSD

Columns and labels:
[1] = variants of: B1; test: sfGFP reporter fluorescence (15 h) (µM FITC); higher = higher leak; conditions: library round: Round 0; ligand: none
Procedure, shortened: (§1)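 With 1 µM lead chloride, 30 µM zinc acetate or no metal present, 1 μL Echo-assembled reactions were incubated 15 hr at 30 °C. They contained BL21 Star (DE3) PANOx-SP extract, 30 μg/mL GamS, the pPbrR-sfGFP reporter plasmid and PCR-made linear PbrR templates Echo-normalized to 5 nM. Endpoint sfGFP fluorescence was read on a Synergy Neo2 at 485/528 nm against FITC standards in 50 mM sodium borate pH 8.5. Results are expressed as µM FITC.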

[2] = variants of: B1; test: sfGFP reporter fluorescence (15 h) (µM FITC); higher = stronger transcriptional activation; conditions: library round: Round 0
Procedure, shortened: as §1

Row | Variant | sfGFP reporter fluorescence [1] | sfGFP reporter fluorescence ([2]; ligand: 1 µM Pb) | sfGFP reporter fluorescence ([2]; ligand: 30 µM Zn)
1 | S144A | 0.0586 ± 0.0036 | 0.0588 ± 0.0023 | 0.493 ± 0.16
2 | P143T | 0.05772 ± 0.00026 | 0.0713 ± 0.0065 | 0.821 ± 0.11
3 | P143Q | 0.0566 ± 0.0039 | 0.0735 ± 0.0049 | 0.871 ± 0.098
4 | P143D | 0.05754 ± 0.00052 | 0.0733 ± 0.0021 | 0.782 ± 0.024
5 | P143K | 0.0581 ± 0.00078 | 0.07293 ± 0.00052 | 0.889 ± 0.15
6 | P143F | 0.0568 ± 0.0015 | 0.0819 ± 0.0039 | 0.777 ± 0.052
7 | P143L | 0.0563 ± 0.0018 | 0.0782 ± 0.0029 | 0.837 ± 0.046
8 | P143C | 0.0574 ± 0.0013 | 0.07678 ± 0.00026 | 0.495 ± 0.12
9 | P143W | 0.0588 ± 0.0029 | 0.0861 ± 0.0026 | 0.751 ± 0.11
10 | P143N | 0.0568 ± 0.0015 | 0.0718 ± 0.0057 | 0.865 ± 0.12
11 | P143V | 0.0559 ± 0.0013 | 0.0726 ± 0.0026 | 0.757 ± 0.14
12 | P143M | 0.05736 ± 0.00026 | 0.0799 ± 0.001 | 0.812 ± 0.12
13 | P143S | 0.0566 ± 0.0023 | 0.07568 ± 0.00026 | 0.842 ± 0.05
14 | P143H | 0.0585 ± 0.0018 | 0.0786 ± 0.0013 | 0.764 ± 0.072
15 | P143G | 0.05351 ± 0.00052 | 0.06945 ± 0.00026 | 0.71 ± 0.092
16 | P143R | 0.05864 ± 0.00052 | 0.0806 ± 0.0052 | 0.983 ± 0.14
17 | P143E | 0.0563 ± 0.00078 | 0.0696 ± 0.0026 | 0.635 ± 0.04
18 | P143A | 0.0696 ± 0.0015 | 0.0806 ± 0.0026 | 0.4 ± 0.12
19 | P143Y | 0.05846 ± 0.00026 | 0.0834 ± 0.0039 | 0.73 ± 0.013
20 | P143I | 0.05534 ± 0.00052 | 0.0768 ± 0.0023 | 0.801 ± 0.12
21 | C132A | 0.0695 ± 0.0023 | 0.0832 ± 0.0073 | 1.63 ± 0.043
22 | G138A | 0.0597 ± 0.001 | 0.0724 ± 0.0018 | 0.697 ± 0.17

Row | Variant | sfGFP reporter fluorescence [1] | sfGFP reporter fluorescence ([2]; ligand: 1 µM Pb) | sfGFP reporter fluorescence ([2]; ligand: 30 µM Zn)
23 | H142A | 0.0614 ± 0.0034 | 0.0718 ± 0.001 | 0.728 ± 0.32
24 | L129C | 0.0561 ± 0.0015 | 0.05791 ± 0.00052 | 0.05443 ± 0.00026
25 | L129A | 0.0572 ± 0.0021 | 0.0561 ± 0.001 | 0.0574 ± 0.0018
26 | L129D | 0.0588 ± 0.0013 | 0.05992 ± 0.00026 | 0.055 ± 0.001
27 | L129E | 0.0581 ± 0.0013 | 0.0597 ± 0.0021 | 0.0546 ± 0.0015
28 | L129Y | 0.057 ± 0.0018 | 0.05901 ± 0.00052 | 0.05626 ± 0.00026
29 | L129P | 0.05387 ± 0.00052 | 0.055 ± 0.0036 | 0.0491 ± 0.0026
30 | L129F | 0.0559 ± 0.0013 | 0.0581 ± 0.00078 | 0.0564 ± 0.001
31 | L129N | 0.0586 ± 0.0015 | 0.05827 ± 0.00052 | 0.0535 ± 0.0036
32 | L129T | 0.05827 ± 0.00052 | 0.0581 ± 0.00078 | 0.055 ± 0.0021
33 | L129R | 0.0588 ± 0.00078 | 0.05901 ± 0.00052 | 0.0557
34 | L129H | 0.0586 ± 0.0015 | 0.0586 ± 0.0021 | 0.0583 ± 0.0015
35 | L129W | 0.0572 ± 0.0026 | 0.06047 ± 0.00052 | 0.05717 ± 0.00052
36 | L129M | 0.0577 ± 0.00078 | 0.05901 ± 0.00052 | 0.0788 ± 0.0047
37 | L129S | 0.0577 ± 0.0013 | 0.05901 ± 0.00052 | 0.0563 ± 0.00078
38 | L129G | 0.0526 ± 0.00078 | 0.0542 ± 0.001 | 0.0509 ± 0.0021
39 | L129I | 0.0535 ± 0.0021 | 0.0592 ± 0.0013 | 0.163 ± 0.012
40 | L129K | 0.0581 ± 0.00078 | 0.059 ± 0.0021 | 0.05662 ± 0.00026
41 | L129Q | 0.0588 ± 0.0018 | 0.0574 ± 0.0013 | 0.05406 ± 0.00026
42 | L129V | 0.0557 ± 0.001 | 0.05717 ± 0.00052 | 0.05351 ± 0.00052
43 | L126R | 0.0619 ± 0.0015 | 0.05992 ± 0.00026 | 0.0572 ± 0.0021
44 | L126K | 0.0597 ± 0.0031 | 0.05919 ± 0.00026 | 0.0564 ± 0.001

Row | Variant | sfGFP reporter fluorescence [1] | sfGFP reporter fluorescence ([2]; ligand: 1 µM Pb) | sfGFP reporter fluorescence ([2]; ligand: 30 µM Zn)
45 | L126T | 0.0596 ± 0.0018 | 0.0579 ± 0.0036 | 0.057 ± 0.0029
46 | L126N | 0.05901 ± 0.00052 | 0.05882 ± 0.00026 | 0.05333 ± 0.00026
47 | L126E | 0.0594 ± 0.0021 | 0.05772 ± 0.00026 | 0.0557 ± 0.001
48 | L126F | 0.05699 ± 0.00026 | 0.0583 ± 0.001 | 0.0586 ± 0.0021
49 | L126S | 0.0592 ± 0.0018 | 0.0585 ± 0.00078 | 0.05443 ± 0.00026
50 | L126Y | 0.0596 ± 0.0018 | 0.05937 ± 0.00052 | 0.0561 ± 0.0021
51 | L126Q | 0.05901 ± 0.00052 | 0.0577 ± 0.0018 | 0.05534 ± 0.00052
52 | L126H | 0.0603 ± 0.0018 | 0.0588 ± 0.00078 | 0.0552 ± 0.006
53 | L126V | 0.0555 ± 0.0013 | 0.0581 ± 0.00078 | 0.0586
54 | L126G | 0.0539 ± 0.0015 | 0.05571 ± 0.00052 | 0.0502 ± 0.0021
55 | L126W | 0.0586 | 0.0594 ± 0.0026 | 0.0612
56 | L126I | 0.0542 ± 0.001 | 0.0568 ± 0.0015 | 0.238 ± 0.012
57 | L126M | 0.0594 ± 0.0015 | 0.0596 ± 0.0018 | 0.22 ± 0.032
58 | L126P | 0.05552 ± 0.00026 | 0.0555 ± 0.0023 | 0.05113 ± 0.00026
59 | T140A | 0.0614 ± 0.0013 | 0.0726 ± 0.0015 | 0.5 ± 0.039
60 | C134F | 0.081 ± 0.001 | 0.202 ± 0.01 | 1.32 ± 0.51
61 | C134D | 0.06157 ± 0.00052 | 0.0684 ± 0.0018 | 1.004 ± 0.008
62 | C134L | 0.0673 ± 0.00078 | 0.113 ± 0.012 | 1.3 ± 0.054
63 | C134T | 0.06542 ± 0.00026 | 0.0823 ± 0.0049 | 1.21 ± 0.096
64 | C134I | 0.0678 ± 0.001 | 0.113 ± 0.0044 | 1.19 ± 0.11
65 | C134H | 0.0645 | 0.0913 ± 0.0042 | 1.05 ± 0.012
66 | C134W | 0.145 ± 0.0042 | 0.4695 ± 0.0031 | 1.92 ± 0.047

Row | Variant | sfGFP reporter fluorescence [1] | sfGFP reporter fluorescence ([2]; ligand: 1 µM Pb) | sfGFP reporter fluorescence ([2]; ligand: 30 µM Zn)
67 | C134Q | 0.0652 | 0.0953 ± 0.001 | 1.33 ± 0.4
68 | C134E | 0.0608 ± 0.001 | 0.0651 ± 0.0034 | 0.929 ± 0.095
69 | C134Y | 0.072 ± 0.0034 | 0.154 ± 0.012 | 1.49 ± 0.19
70 | C134N | 0.06505 ± 0.00026 | 0.081 ± 0.0031 | 1.39 ± 0.12
71 | C134A | 0.0652 ± 0.001 | 0.0821 ± 0.0052 | 0.59 ± 0.049
72 | C134R | 0.0731 ± 0.0023 | 0.0993 ± 0.0042 | 1.66 ± 0.018
73 | C134M | 0.0693 ± 0.001 | 0.09162 ± 0.00052 | 1.28 ± 0.065
74 | C134S | 0.06597 ± 0.00052 | 0.0814 ± 0.0036 | 1.22 ± 0.1
75 | C134V | 0.0667 ± 0.00052 | 0.0894 ± 0.0047 | 1.13 ± 0.25
76 | C134P | 0.0667 ± 0.00052 | 0.0847 ± 0.011 | 1.54 ± 0.058
77 | C134K | 0.0742 ± 0.00078 | 0.0891 ± 0.0021 | 1.71 ± 0.084
78 | C134G | 0.0651 ± 0.0029 | 0.0841 ± 0.0013 | 1.35 ± 0.059
79 | Q127A | 0.0724 ± 0.0018 | 0.0793 ± 0.0049 | 0.299 ± 0.047
80 | T136A | 0.0601 ± 0.001 | 0.0696 ± 0.0031 | 0.668 ± 0.013
81 | S130A | 0.0599 ± 0.0013 | 0.0821 ± 0.001 | 0.862 ± 0.14
82 | G128N | 0.0614 ± 0.0023 | 0.0704 ± 0.0042 | 0.875 ± 0.093
83 | G128T | 0.0647 ± 0.0018 | 0.0885 ± 0.014 | 1.21 ± 0.22
84 | G128D | 0.0603 ± 0.0023 | 0.0607 ± 0.00078 | 0.108 ± 0.0029
85 | G128L | 0.0715 ± 0.0031 | 0.203 ± 0.03 | 2.04 ± 0.21
86 | G128P | 0.05498 ± 0.00052 | 0.0568 ± 0.001 | 0.0535 ± 0.001
87 | G128K | 0.122 ± 0.0031 | 0.192 ± 0.007 | 3.05 ± 0.22
88 | G128Q | 0.06982 ± 0.00026 | 0.117 ± 0.0026 | 2.05 ± 0.43
